Results as given in patent US20260002151, “COMPOSITIONS AND METHODS FOR THE MODIFICATION AND REGULATION OF LIVER GENE EXPRESSION” (Mammoth Biosciences, Inc., published 2026).

T1: CasM.265466 D220R (unidentified, D220R)
T1 chain: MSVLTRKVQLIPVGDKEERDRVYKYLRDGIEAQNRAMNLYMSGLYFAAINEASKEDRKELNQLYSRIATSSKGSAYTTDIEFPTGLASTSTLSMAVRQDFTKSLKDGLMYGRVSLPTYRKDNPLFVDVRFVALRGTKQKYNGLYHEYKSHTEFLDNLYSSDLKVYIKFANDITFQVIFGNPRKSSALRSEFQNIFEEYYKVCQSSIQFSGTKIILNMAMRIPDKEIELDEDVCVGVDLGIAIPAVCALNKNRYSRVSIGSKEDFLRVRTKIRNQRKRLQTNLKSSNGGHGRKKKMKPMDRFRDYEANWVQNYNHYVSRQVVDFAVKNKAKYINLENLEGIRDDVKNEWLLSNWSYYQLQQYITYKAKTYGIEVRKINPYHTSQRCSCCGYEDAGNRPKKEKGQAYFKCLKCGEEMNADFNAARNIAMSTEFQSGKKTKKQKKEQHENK

B1: R16927 guide ; APOC3 target of R16927 (ssRNA ; dsDNA)
RNA: ACAGCUUAUUUGGAAGCUGAAAUGUGAGGUUUAUAACACUCACAAGAAUCCUGAAAAAGGAUGCCAAACAGUUCUGGGAUUUGGACCCU
DNA 1: AGTTCTGGGATTTGGACCCT
DNA 2: AGGGTCCAAATCCCAGAACT
B2: R16928 guide ; APOC3 target of R16928 (ssRNA ; dsDNA)
RNA: ACAGCUUAUUUGGAAGCUGAAAUGUGAGGUUUAUAACACUCACAAGAAUCCUGAAAAAGGAUGCCAAACGACCCUGAGGUCAGACCAAC
DNA 1: GACCCTGAGGTCAGACCAAC
DNA 2: GTTGGTCTGACCTCAGGGTC
B3: R16929 guide ; APOC3 target of R16929 (ssRNA ; dsDNA)
RNA: ACAGCUUAUUUGGAAGCUGAAAUGUGAGGUUUAUAACACUCACAAGAAUCCUGAAAAAGGAUGCCAAACACCUCAGGGUCCAAAUCCCA
DNA 1: ACCTCAGGGTCCAAATCCCA
DNA 2: TGGGATTTGGACCCTGAGGT

Biological target: T1, CasM.265466 D220R
Experiment: cell_activity; AAV8 in hAPOC3 mice, vehicle 936; PAM NNTN
From the text: Samples were collected from mice at 2 and 4 weeks.
Levels of human APOC3 protein in liver were quantified by ELISA. CasM.265466 variant D220R and multiple APOC3 guide RNAs tested reduced human ApoC3 protein in liver at 2 weeks and 4 weeks. […] Liver and body weights were normal at 0, 2 and 4 weeks. At four weeks post injection ALT levels were reduced in mice that received CasM.265466 variant D220R or CasPhi.12 variant L26R when compared those of mice receiving vehicle only. […] The guide IDs shown in the legend from top to bottom correspond to the data points in the graphs from left to right.

Binder | activity
B1 | 145 mg/dL serum triglycerides
B2 | 190 mg/dL serum triglycerides
B3 | 247 mg/dL serum triglycerides
